Source: US20220056125A1 (CEPHALON, published 2022)

Molecular target: T1, human PAR-2 (human, UniProt P55085 26-397)
T1 sequence: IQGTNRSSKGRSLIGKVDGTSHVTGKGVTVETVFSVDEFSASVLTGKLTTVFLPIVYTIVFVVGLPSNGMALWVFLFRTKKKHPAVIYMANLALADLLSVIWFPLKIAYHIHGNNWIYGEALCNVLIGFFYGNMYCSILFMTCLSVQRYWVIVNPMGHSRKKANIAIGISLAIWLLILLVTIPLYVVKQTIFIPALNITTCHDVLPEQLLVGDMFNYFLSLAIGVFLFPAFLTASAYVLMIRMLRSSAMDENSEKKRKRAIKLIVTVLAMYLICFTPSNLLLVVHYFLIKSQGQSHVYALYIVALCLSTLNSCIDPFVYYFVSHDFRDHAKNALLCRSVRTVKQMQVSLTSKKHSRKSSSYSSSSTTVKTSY
Assay: cell-based or functional assay

Binder	PAR-2 β-arrestin cell based assay IC50, 2 µM SLIGKV
P24E283 (antibody, human IgG4 S228P, kappa, V domains shown) VH: QVQLVQSGAEVKKPGSSVKVSCKASGFSLNSYAVIWVRQAPGQGLEWMGVIWGNGNTYYAQKFQGRVTITADESTSTAYMELSSLRSEDTAVYYCARWRGYKDYPFDYWGQGTLVTVSS VL: EIVLTQSPATLSLSPGERATLSCKASQNIYKYLDWYQQKPGQAPRLLIYNTNSLATGIPARFSGSGSGRDFTLTISSLEPEDFAVYYCLQHNSGWTFGGGTKVEIKR	3.6 nM
P24E290 (antibody, human IgG4 S228P, kappa, V domains shown) VH: QVQLVQSGAEVKKPGSSVKVSCKASGFSLNSYGIIWVRQAPGQGLEWMGVIWGNGNTYYAQKFQGRVTITADESTSTAYMELSSLRSEDTAVYYCARWRGYKDYPFDYWGQGTLVTVSS VL: EIVLTQSPATLSLSPGERATLSCKASQNVYKYLDWYQQKPGQAPRLLIYNTNSLATGIPARFSGSGSGRDFTLTISSLEPEDFAVYYCLQHNSGWTFGGGTKVEIKR	2.2 nM
P24E297 (antibody, human IgG4 S228P, kappa, V domains shown) VH: QVQLVQSGAEVKKPGSSVKVSCKASGFSLNSYAISWVRQAPGQGLEWMGVIWGNGNTYYAQKFQGRVTITADESTSTAYMELSSLRSEDTAVYYCARWRGYKDYPFDYWGQGTLVTVSS VL: EIVLTQSPATLSLSPGERATLSCKASQNIYKYLDWYQQKPGQAPRLLIYNTNSRATGIPARFSGSGSGRDFTLTISSLEPEDFAVYYCLQHNSGWTFGGGTKVEIKR	3 nM
P24E301 (antibody, human IgG4 S228P, kappa, V domains shown) VH: QVQLVQSGAEVKKPGSSVKVSCKASGFSLSSYAISWVRQAPGQGLEWMGVIWGNGNTYYAQKFQGRVTITADESTSTAYMELSSLRSEDTAVYYCARWKGYKDYPFDYWGQGTLVTVSS VL: EIVLTQSPATLSLSPGERATLSCKASQNIYKWLDWYQQKPGQAPRLLIYNTNSLATGIPARFSGSGSGRDFTLTISSLEPEDFAVYYCLQHNSGWTFGGGTKVEIKR	1.48 nM
P24E286 (antibody, human IgG4 S228P, kappa, V domains shown) VH: QVQLVQSGAEVKKPGSSVKVSCKASGFSLNSYAVIWVRQAPGQGLEWMGVIWGNGNTYYAQKFQGRVTITADESTSTAYMELSSLRSEDTAVYYCARWRGYKDYPFDYWGQGTLVTVSS VL: EIVLTQSPATLSLSPGERATLSCKASQNIYKYLDWYQQKPGQAPRLLIYNANSLATGIPARFSGSGSGRDFTLTISSLEPEDFAVYYCLQHNSGWTFGGGTKVEIKR	2.1 nM
P24E292 (antibody, human IgG4 S228P, kappa, V domains shown) VH: QVQLVQSGAEVKKPGSSVKVSCKASGFSLNSYGIIWVRQAPGQGLEWMGVIWGNGNTYYAQKFQGRVTITADESTSTAYMELSSLRSEDTAVYYCARWRGYKDYPFDYWGQGTLVTVSS VL: EIVLTQSPATLSLSPGERATLSCKASQNIYKYLDWYQQKPGQAPRLLIYNTNSRATGIPARFSGSGSGRDFTLTISSLEPEDFAVYYCLQHNSGWTFGGGTKVEIKR	1.2 nM
P24E794 (antibody, human IgG4 S228P, kappa, V domains shown) VH: QVQLVQSGAEVKKPGSSVKVSCKASGFSLSSYAISWVRQAPGQGLEWMGVIWGNGNTYYAQKFQGRVTITADESTSTAYMELSSLRSEDTAVYYCARWRGYKDYPFDYWGQGTLVTVSS VL: EIVLTQSPATLSLSPGERATLSCRASQNVYKWLDWYQQKPGQAPRLLIYNAYSRATGIPARFSGSGSGRDFTLTISSLEPEDFAVYYCQQHNSGWTFGGGTKVEIKR	0.89 nM
P24E288 (antibody, human IgG4 S228P, kappa, V domains shown) VH: QVQLVQSGAEVKKPGSSVKVSCKASGFSLNSYGIIWVRQAPGQGLEWMGVIWGNGNTYYAQKFQGRVTITADESTSTAYMELSSLRSEDTAVYYCARWRGYKDYPFDYWGQGTLVTVSS VL: EIVLTQSPATLSLSPGERATLSCKASQNIYKYLDWYQQKPGQAPRLLIYNTNSLATGIPARFSGSGSGRDFTLTISSLEPEDFAVYYCLQHNSGWTFGGGTKVEIKR	1.4 nM
P24E289 (antibody, human IgG4 S228P, kappa, V domains shown) VH: QVQLVQSGAEVKKPGSSVKVSCKASGFSLNSYGIIWVRQAPGQGLEWMGVIWGNGNTYYAQKFQGRVTITADESTSTAYMELSSLRSEDTAVYYCARWRGYKDYPFDYWGQGTLVTVSS VL: EIVLTQSPATLSLSPGERATLSCRASQNIYKYLDWYQQKPGQAPRLLIYNTNSLATGIPARFSGSGSGRDFTLTISSLEPEDFAVYYCLQHNSGWTFGGGTKVEIKR	2.6 nM
P24E300 (antibody, human IgG4 S228P, kappa, V domains shown) VH: QVQLVQSGAEVKKPGSSVKVSCKASGFSLSSYAISWVRQAPGQGLEWMGVIWGNGNTYYAQKFQGRVTITADESTSTAYMELSSLRSEDTAVYYCARWRGWKDYPFDYWGQGTLVTVSS VL: EIVLTQSPATLSLSPGERATLSCKASQNIYKWLDWYQQKPGQAPRLLIYNTNSLATGIPARFSGSGSGRDFTLTISSLEPEDFAVYYCLQHNSGWTFGGGTKVEIKR	1.3 nM
P24E291 (antibody, human IgG4 S228P, kappa, V domains shown) VH: QVQLVQSGAEVKKPGSSVKVSCKASGFSLNSYGIIWVRQAPGQGLEWMGVIWGNGNTYYAQKFQGRVTITADESTSTAYMELSSLRSEDTAVYYCARWRGYKDYPFDYWGQGTLVTVSS VL: EIVLTQSPATLSLSPGERATLSCKASQNIYKYLDWYQQKPGQAPRLLIYNANSLATGIPARFSGSGSGRDFTLTISSLEPEDFAVYYCLQHNSGWTFGGGTKVEIKR	3.1 nM
P24E298 (antibody, human IgG4 S228P, kappa, V domains shown) VH: QVQLVQSGAEVKKPGSSVKVSCKASGFSLSSYAISWVRQAPGQGLEWMGVIWGNGNTYYAQKFQGRVTITADESTSTAYMELSSLRSEDTAVYYCARWRGYKDYPFDYWGQGTLVTVSS VL: EIVLTQSPATLSLSPGERATLSCKASQNIYKWLDWYQQKPGQAPRLLIYNTNSLATGIPARFSGSGSGRDFTLTISSLEPEDFAVYYCLQHNSGWTFGGGTKVEIKR	1.47 nM
P24E294 (antibody, human IgG4 S228P, kappa, V domains shown) VH: QVQLVQSGAEVKKPGSSVKVSCKASGFSLNSYAISWVRQAPGQGLEWMGVIWGNGNTYYAQKFQGRVTITADESTSTAYMELSSLRSEDTAVYYCARWRGYKDYPFDYWGQGTLVTVSS VL: EIVLTQSPATLSLSPGERATLSCRASQNIYKYLDWYQQKPGQAPRLLIYNTNSLATGIPARFSGSGSGRDFTLTISSLEPEDFAVYYCLQHNSGWTFGGGTKVEIKR	2.9 nM
P24E285 (antibody, human IgG4 S228P, kappa, V domains shown) VH: QVQLVQSGAEVKKPGSSVKVSCKASGFSLNSYAVIWVRQAPGQGLEWMGVIWGNGNTYYAQKFQGRVTITADESTSTAYMELSSLRSEDTAVYYCARWRGYKDYPFDYWGQGTLVTVSS VL: EIVLTQSPATLSLSPGERATLSCKASQNVYKYLDWYQQKPGQAPRLLIYNTNSLATGIPARFSGSGSGRDFTLTISSLEPEDFAVYYCLQHNSGWTFGGGTKVEIKR	2.3 nM
P24E295 (antibody, human IgG4 S228P, kappa, V domains shown) VH: QVQLVQSGAEVKKPGSSVKVSCKASGFSLNSYAISWVRQAPGQGLEWMGVIWGNGNTYYAQKFQGRVTITADESTSTAYMELSSLRSEDTAVYYCARWRGYKDYPFDYWGQGTLVTVSS VL: EIVLTQSPATLSLSPGERATLSCKASQNVYKYLDWYQQKPGQAPRLLIYNTNSLATGIPARFSGSGSGRDFTLTISSLEPEDFAVYYCLQHNSGWTFGGGTKVEIKR	1.6 nM
P24E287 (antibody, human IgG4 S228P, kappa, V domains shown) VH: QVQLVQSGAEVKKPGSSVKVSCKASGFSLNSYAVIWVRQAPGQGLEWMGVIWGNGNTYYAQKFQGRVTITADESTSTAYMELSSLRSEDTAVYYCARWRGYKDYPFDYWGQGTLVTVSS VL: EIVLTQSPATLSLSPGERATLSCKASQNIYKYLDWYQQKPGQAPRLLIYNTNSRATGIPARFSGSGSGRDFTLTISSLEPEDFAVYYCLQHNSGWTFGGGTKVEIKR	2.2 nM
P24E296 (antibody, human IgG4 S228P, kappa, V domains shown) VH: QVQLVQSGAEVKKPGSSVKVSCKASGFSLNSYAISWVRQAPGQGLEWMGVIWGNGNTYYAQKFQGRVTITADESTSTAYMELSSLRSEDTAVYYCARWRGYKDYPFDYWGQGTLVTVSS VL: EIVLTQSPATLSLSPGERATLSCKASQNIYKYLDWYQQKPGQAPRLLIYNANSLATGIPARFSGSGSGRDFTLTISSLEPEDFAVYYCLQHNSGWTFGGGTKVEIKR	2.4 nM
P24E293 (antibody, human IgG4 S228P, kappa, V domains shown) VH: QVQLVQSGAEVKKPGSSVKVSCKASGFSLNSYAISWVRQAPGQGLEWMGVIWGNGNTYYAQKFQGRVTITADESTSTAYMELSSLRSEDTAVYYCARWRGYKDYPFDYWGQGTLVTVSS VL: EIVLTQSPATLSLSPGERATLSCKASQNIYKYLDWYQQKPGQAPRLLIYNTNSLATGIPARFSGSGSGRDFTLTISSLEPEDFAVYYCLQHNSGWTFGGGTKVEIKR	2 nM
P24E743 (antibody, human IgG4 S228P, kappa, V domains shown) VH: QVQLVQSGAEVKKPGSSVKVSCKASGFSLSSYAISWVRQAPGQGLEWMGVIWGNGNTYYAQKFQGRVTITADESTSTAYMELSSLRSEDTAVYYCARWRGYKDYPFDYWGQGTLVTVSS VL: EIVLTQSPATLSLSPGERATLSCKASQNVYKWLDWYQQKPGQAPRLLIYNAYSLATGIPARFSGSGSGRDFTLTISSLEPEDFAVYYCQQHGSGWTFGGGTKVEIKR	1.51 nM
P24E284 (antibody, human IgG4 S228P, kappa, V domains shown) VH: QVQLVQSGAEVKKPGSSVKVSCKASGFSLNSYAVIWVRQAPGQGLEWMGVIWGNGNTYYAQKFQGRVTITADESTSTAYMELSSLRSEDTAVYYCARWRGYKDYPFDYWGQGTLVTVSS VL: EIVLTQSPATLSLSPGERATLSCRASQNIYKYLDWYQQKPGQAPRLLIYNTNSLATGIPARFSGSGSGRDFTLTISSLEPEDFAVYYCLQHNSGWTFGGGTKVEIKR	2.5 nM
